Legend:
Experiment in all cases: cell_activity
[1] = tested on: TALEN A2 NT-αN (synthetic); conditions: HeLa; pair A1/A2
[2] = tested on: TALEN C2 NT-αN (synthetic); conditions: HeLa; pair C1/C2
[3] = tested on: TALEN A1 NT-αN (synthetic); conditions: HeLa; pair A1/A2
[4] = tested on: GinC4 zinc finger recombinase (synthetic); conditions: HEK293T; 107-fold in p263
[5] = tested on: GinC4 + Gin-Avr15Δ120 heterodimer (synthetic); conditions: HEK293T; ZFR-TALER heterodimer
[6] = tested on: Gin-Avr15Δ120 (synthetic repeats) (synthetic); conditions: for activity (fold luciferase reduction): HEK293T
[7] = tested on: Gin-AvrXa7 Δ128 (synthetic); conditions: E. coli
[8] = tested on: Gin-Pth15Δ120 (synthetic repeats) (synthetic); conditions: E. coli

**Q.** “ATTCTTCCAGAATTGA (double strand) [TALEN A2 half-site]” was tested. Which activity (fold over NT-T) [1] did it give?
**A.** The activity (fold over NT-T) was 9.

**Q.** How did the activity (fold over NT-T) [2] turn out when “CAGAATTGATACTGACT (double strand) [TALEN C2 half-site]” was run?
**A.** The activity (fold over NT-T) was 2.

**Q.** Which activity (fold over NT-T) [3] does the source give for “CCTGCAGCTCTCATTTT (double strand) [TALEN A1 half-site]” here?
**A.** The activity (fold over NT-T) was 9.

**Q.** With “GCGGGAGGCGTGTCCAAAACCATGGTTTACAG (double strand) [C4-20G (C4 zinc finger site flanking Gin core)]” as the sequence, how does the activity (fold luciferase reduction) [4] read?
**A.** The activity (fold luciferase reduction) was greater than 80.

**Q.** With “GCGGGAGGCGTGTCCAAAACCATGGTTTACAGGGTTCCTATAAACCCCCTCCAACCAGGTGCTAA (double strand) [Avr-G-ZF hybrid site]” as the sequence, how does the activity (fold luciferase reduction) [5] read?
**A.** Its activity (fold luciferase reduction) is greater than 140.

**Q.** How did the activity (fold less than cognate site) ([6]; E. coli) turn out when “GTGGTGTACAGTAGGGGGAGATGCAGCTGCTTCCAAAACCATGGTTTACAGGGTGGTTGCATCTCCCCCTACTGTACACCAC (double strand) [PthXo1-32G]” was run?
**A.** The activity (fold less than cognate site) was greater than 600.

**Q.** What about the activity (fold less than cognate) ([7]; non-cognate TALE site) of the same sequence?
**A.** The activity (fold less than cognate) was greater than 100.

**Q.** And the activity (fold over non-cognate site) [8]?
**A.** The activity (fold over non-cognate site) was greater than 600.

**Q.** How did the activity (fold less than cognate core) ([6]; E. coli) turn out when “TTAGCACCTGGTTGGAGGGGGTTTATAGCTTCACGAAATATTATAAATTATCAGGTTCCTATAAACCCCCTCCAACCAGGTGCTAA (double strand) [Avr32T]” was run?
**A.** The activity (fold less than cognate core) was greater than 1000.

**Q.** And the activity (fold less than cognate) [7]?
**A.** Its activity (fold less than cognate) is greater than 100.

**Q.** For “TTAGCACCTGGTTGGAGGGGGTTTATAGCTTCAGCTTCATCCAAAACCATGGTTTACAGGGTTCCGGTTCCTATAAACCCCCTCCAACCAGGTGCTAA (double strand) [Avr44G]”, which activity (fold luciferase reduction) [6] is on record?
**A.** Its activity (fold luciferase reduction) is 20.

**Q.** “TTAGCACCTGGTTGGAGGGGGTTTATAGCTTCATCCAAAACCATGGTTTACAGGGTTCCTATAAACCCCCTCCAACCAGGTGCTAA (double strand) [Avr32G]” was tested. Which activity (fold luciferase reduction) [6] did it give?
**A.** Its activity (fold luciferase reduction) is 6.

**Q.** And the activity (fold less than cognate site) [8]?
**A.** Its activity (fold less than cognate site) is greater than 600.

**Q.** For “TTAGCACCTGGTTGGAGGGGGTTTATAGCTTCATCCAAAACCGGGGTTTACAGGGTTCCTATAAACCCCCTCCAACCAGGTGCTAA (double strand) [Avr32GG]”, which activity (fold less than cognate) [7] is on record?
**A.** The activity (fold less than cognate) was greater than 100.
